Data taken from patent publication US12162911B2, “Pulmonary administration of pyocins for treating bacterial respiratory infections” (priority 2014, dated 2024).
Entries after “also recorded” stand apart in the source; their conditions may differ.

Columns and labels:
[1] = test system: P. aeruginosa P8; assay: Mouse model of acute lung infection, P. aeruginosa P8; type: in vivo, Pseudomonas aeruginosa
Experimental: Study design. […] For all experiments 6 week-old, female, murine pathogen free C57/BL6 mice weighing 15-21 g were used (Charles Rivers Laboratories, UK). All mice received food and water ad libitum and were housed in groups during the experiments. Power calculations were used to predetermine sample size (n=6, for all treatment experiments). Mice were culled when required as determined by a scoring system or culled at the pre-determined 24 h time point. All mice, including outliers were included in the statistical analysis. Experiments were either carried out once only or repeated once (defined for each experiment).
(§1) Model of acute lung infection. Female C57/BL6 mice were inoculated intranasally with 25 μl of bacterial culture containing approximately 10^7 CFU of the selected P. aeruginosa strain^36. Antibiotic treatments were administered at either 6 h pre-infection or 1 h post-infection and were administered only once. Pyocins or tobramycin dissolved in PBS were administered via intranasal administration as described above. Two different end-points were used in these experiments. In order to determine a reduction in the bacterial load of the lungs compared to the untreated controls, all mice in the experiment were culled by carbon dioxide asphyxiation at the same time; 4-6 h post infection. To determine if mice could survive infection after pyocin or tobramycin treatment, mice were monitored closely, culled by carbon dioxide asphyxiation when required as determined by a scoring system or culled at the pre-determined 24 h time point. Uninfected mice, treated with pyocins, were used as controls in the first series of experiments in order to ensure no adverse effects from pyocin treatment. These controls were stopped in later experiments in order to reduce the number of animals used, once it was clear that the pyocins were not harmful. For CFU determination, lungs were removed aseptically and kept on ice in 750 μl of PBS until homogenised. Serial 10-fold dilutions of the homogenised lung were plated on Pseudomonas selective agar (20 g peptone, 1.5 g K2HPO4, 1.5 g MgSO4·7H2O, 10 ml glycerol, 15 g agar, 0.025 g Irgasan per litre) and incubated at 37° C. for 24 h and then room temperature for 24 h before the colonies were counted.

[2] = test system: P. aeruginosa P17; assay: Mouse model of acute lung infection, P. aeruginosa P17; type: in vivo, Pseudomonas aeruginosa
Experimental: as §1
Since strains of P. aeruginosa are phenotypically diverse, we tested the efficacy of the pyocins against three additional isolates: P. aeruginosa P17 and P. aeruginosa P5 (mucoid), both from cystic fibrosis patients and P. aeruginosa E2, an environmental isolate. Pyocin S2 was not active against P. aeruginosa P5 or P. aeruginosa E2 in vitro therefore was not used to treat these strains in vivo and similarly pyocin L1 was not used against P. aeruginosa P17. […] Lung homogenates from P. aeruginosa E2-infected AP41-treated mice contained high levels of viable bacteria, reduced only 10-fold relative to control mice (Table 1). […] Thus, pyocins show strong efficacy against diverse strains of P. aeruginosa with pyocin S5 treatment displaying the largest effect on reducing bacterial load.

[3] = test system: P8AP41T; assay: Mouse model of acute lung infection, AP41 tolerant strain P8AP41T; type: in vivo, Pseudomonas aeruginosa; conditions: 3 mg ml^−1 1 h post-infection
Experimental: as §1
In order to determine if pyocin tolerance or resistance was acquired upon pyocin treatment in vivo, viable bacteria recovered from mice that survived infection to the 24 h end-point, in all experiments discussed in this work, were tested for pyocin susceptibility. From these experiments no pyocin resistant colonies were isolated. […] Importantly, sensitivity to pyocins S5 and L1 were unaffected in vitro in this pyocin AP41-tolerant strain (FIG. 3a) and this was also shown to be the case in vivo when mice were infected with P8AP41T.

[4] = Pyocin S5-specific antibody titers by indirect ELISA
Experimental: Determination of pyocin S5-specific antibody titers by indirect ELISA. For analysis of IgG and IgA responses, blood was obtained by cardiac puncture immediately after carbon dioxide asphyxiation. Serum was obtained by centrifugation of samples at 13,500 g for 10 min followed by collection of the supernatant. Serum was stored at −80° C. Greiner 96-well plates (MaxiSorp) were coated with purified recombinant pyocin S5 (7.5 μg ml^−1, 50 μl/well) protein in PBS overnight at 4° C. The plates were washed three times with phosphate buffered saline+0.05% TWEEN20 (PBST) and then blocked for 1 h at 37° C. with 150 μl of blocking buffer (1% bovine serum albumin (BSA) in PBS). After washing, five-fold serially diluted samples were added, starting at a dilution of 1/50 in blocking buffer, and incubated for 2 h at 37° C. Serum from mice given pyocin S5+Freunds complete/incomplete subcutaneously three times over four weeks was used as a positive control and uncoated wells were used as negative controls. Serum from individual mice were analysed and replicate samples were carried out on separate days. After washing with PBST, 50 μl of anti-mouse IgG (Fc specific)-peroxidase antibody ((1/1000 dilution) Sigma, UK) or anti-mouse IgA (α-chain specific)-peroxidase antibody ((1/250 dilution) Sigma, UK) in PBST/0.1% BSA was added and plates were incubated for 1 h at 37° C. Plates were developed using […] OPD (o-Phenylenediamine dihydrochloride) tablets (Sigma, UK) and reactions were stopped using 3 M HCl. Optical densities (ODs) were read at 450 nm using a FLUOstar OPTIMA plate reader (BMG labtech, Germany).

[5] = survival to 24 h, treatment 1 h post-infection
[6] = mice repeatedly exposed I.N., 75 μg/dose three times (FIG. 8b)
[7] = mice repeatedly exposed I.P., 75 μg/dose three times (FIG. 8d)

B1: Pyocin S5: S-type pyocin, SEQ ID NO: 13; binds FptA, pore-forming effector (protein, listed as Pseudomonas aeruginosa)
chain: MSNDNEVPGSMVIVAQGPDDQYAYEVPPIDSAAVAGNMFGDLIQREIYLQKNIYYPVRSIFEQGTKEKKEINKKVSDQVDGLLKQITQGKREATRQERVDVMSAVLHKMESDLEGYKKTFTKGPFIDYEKQSSLSIYEAWVKIWEKNSWEERKKYPFQQLVRDELERAVAYYKQDSLSEAVKVLRQELNKQKALKEKEDLSQLERDYRTRKANLEMKVQSELDQAGSALPPLVSPTPEQWLERATRLVTQAIADKKQLQTTNNTLIKNSPTPLEKQKAIYNGELLVDEIASLQARLVKLNAETTRRRTEAERKAAEEQALQDAIKFTADFYKEVTEKFGARTSEMARQLAEGARGKNIRSSAEAIKSFEKHKDALNKKLSLKDRQAIAKAFDSLDKQMMAKSLEKFSKGFGVVGKAIDAASLYQEFKISTETGDWKPFFVKIETLAAGAAASWLVGIAFATATATPIGILGFALVMAVTGAMIDEDLLEKANNLVISI
[1]; 30 ng ml^−1, 1 h post-infection (FIG. 2b)
  survival: survived to 24 h
[1]; 30 ng ml^−1, 24 h post-infection (FIG. 2b)
  bacterial counts compared to the PBS controls: significantly reduced the bacterial counts
[1]; 3 mg ml^−1 1 h post-infection, 24 h post-infection, six mice (FIG. 1d)
  bacteria recovered from lung: no bacteria recovered; also recorded: No colonies were recovered
[1]; 3 mg ml^−1 intranasal 1 h post-infection, culled 4.5 h post-infection (FIG. 1c)
  treated mice from which viable bacteria were recovered: three out of six
[1]; 3 mg ml^−1 intranasal 6 h pre-infection, 24 h post-infection (FIG. 1b)
  viable bacteria recovered from lung: no viable bacteria were recovered; also recorded: No colonies were recovered
[1]; C57/BL6 mice, 3 mg ml^−1 intranasal 6 h pre-infection, culled 4 h post-infection (FIG. 1a)
  viable bacteria recovered from lung homogenates: no viable bacteria were recovered; also recorded: No colonies were recovered
[1]; in vivo
  concentration at which effective in this model: lower than 1 nM
[1]; lowest concentration tested with which the treated mice survived to 24 h
  Lowest active concentration tested: 30 ng/mL
[1]; minimum effective concentrations compared
  potency relative to tobramycin: at least 100 fold
[1]; molarity of lowest active concentration tested
  Corresponding molarity: 535 pM
[1]; pyocin S5 0.3 or 3 mg ml^−1 versus tobramycin 30 or 3 mg ml^−1, 1 h post-infection, culled 4.5 h (FIG. 2a)
  bacterial load compared with tobramycin: reduced the bacterial load to a greater extent than tobramycin
[1]; repeat of FIG. 2a experiment (FIG. 6)
  bacterial counts compared with tobramycin: reduced bacterial counts to a greater extent than tobramycin
[1]; [5]
  lowest concentration at which effective (lower limit): > 300 pg/mL
  lowest concentration at which effective (upper limit): ≤ 30 ng/mL
[2]; pyocin 3 mg ml^−1, endpoint 24 h, infected controls culled at 4 h
  survival / protection: survived until the 24 h endpoint
[2]; pyocin 3 mg ml^−1, treated mice survived to 24 h, no treatment 4.4 × 10^5 CFU/lung
  bacterial count in lung, P17: No colonies
[3]; 24 h (FIG. 3b)
  bacterial numbers in lung homogenates: significantly reduced bacterial numbers; also recorded: No colonies were recovered
[3]; endpoint 24 h, PBS controls culled 6 h post-infection (FIG. 3b)
  survival: survived until the endpoint of the experiment at 24 h
[4]; [6]
  pyocin-S5 specific IgA in serum: no IgA antibodies detected
  pyocin-S5 specific IgG, fold less than the Freunds complete/incomplete control group: 10 fold
[4]; [7]
  pyocin S5-specific IgA in serum: no pyocin S5-specific IgA was detected
  pyocin S5-specific IgG, fold less than the Freunds complete/incomplete control group: 1000 fold
